Earlier results as cited in paper PMC9776569.

Tests used:
Asp20 [1] = target: Asp20 (UniProt position 21, DVLKADGAILV); conditions: redox state not stated in this article
Asp26 [2] = target: Asp26 (UniProt position 27, GAILVDFWAEW); conditions: redox state not stated in this article
Cys32 = Cys32 (UniProt position 33, FWAEWCGPCKM); conditions: reduced (free thiols at Cys-32 and Cys-35)
Cys35 = Cys35 (UniProt position 36, EWCGPCKMIAP); conditions: reduced (free thiols at Cys-32 and Cys-35)
His6 = His6 (UniProt position 7, SDKIIHLTDDS); conditions: redox state not stated in this article
Nterm1 [3] = target: Nterm1 (UniProt position 2, ----MSDKIIH); conditions: redox state not stated in this article
Asp101 = Asp101 (UniProt position 119, KKIVSDGNGMN)
Asp119 = Asp119 (UniProt position 137, RCKGTDVQAWI)
Asp18 = Asp18 (UniProt position 36, KRHGLDNYRGY)
Asp48 = Asp48 (UniProt position 66, TNRNTDGSTDY)
Asp52 = Asp52 (UniProt position 70, TDGSTDYGILQ)
Asp66 = Asp66 (UniProt position 84, RWWCNDGRTPG)
Asp87 = Asp87 (UniProt position 105, ALLSSDITASV)
Cterm129 = Cterm129 (UniProt position 147, IRGCRL-----)
Glu35 = Glu35 (UniProt position 53, CAAKFESNFNT)
Glu7 = Glu7 (UniProt position 25, VFGRCELAAAM)
His15 = His15 (UniProt position 33, AAMKRHGLDNY)
Lys1 = Lys1 (UniProt position 19, LAALGKVFGRC)
Lys116 = Lys116 (UniProt position 134, WRNRCKGTDVQ)
Lys13 = Lys13 (UniProt position 31, LAAAMKRHGLD)
Lys33 = Lys33 (UniProt position 51, WVCAAKFESNF)
Lys96 = Lys96 (UniProt position 114, SVNCAKKIVSD)
Lys97 = Lys97 (UniProt position 115, VNCAKKIVSDG)
Nterm1 [4] = target: Nterm1 (UniProt position 19, LAALGKVFGRC)
Tyr20 = Tyr20 (UniProt position 38, HGLDNYRGYSL)
Tyr23 = Tyr23 (UniProt position 41, DNYRGYSLGNW)
Tyr53 = Tyr53 (UniProt position 71, DGSTDYGILQI)
Asp16 = Asp16 (UniProt position 16, FQEALDAAGDK); conditions: redox state not stated in this article
Asp20 [5] = target: Asp20 (UniProt position 20, LDAAGDKLVVV); conditions: redox state not stated in this article
Asp26 [6] = target: Asp26 (UniProt position 26, KLVVVDFSATW); conditions: redox state not stated in this article
Asp58 = Asp58 (UniProt position 58, IFLEVDVDDCQ); conditions: redox state not stated in this article
Asp60 = Asp60 (UniProt position 60, LEVDVDDCQDV); conditions: redox state not stated in this article
Asp61 = Asp61 (UniProt position 61, EVDVDDCQDVA); conditions: redox state not stated in this article
Asp64 = Asp64 (UniProt position 64, VDDCQDVASEC); conditions: redox state not stated in this article
Glu103 = Glu103 (UniProt position 103, EATINELV---); conditions: redox state not stated in this article
Glu13 = Glu13 (UniProt position 13, KTAFQEALDAA); conditions: redox state not stated in this article
Glu47 = Glu47 (UniProt position 47, FHSLSEKYSNV); conditions: redox state not stated in this article
Glu56 = Glu56 (UniProt position 56, NVIFLEVDVDD); conditions: redox state not stated in this article
Glu6 = Glu6 (UniProt position 6, MVKQIESKTAF); conditions: redox state not stated in this article
Glu68 = Glu68 (UniProt position 68, QDVASECEVKC); conditions: redox state not stated in this article
Glu70 = Glu70 (UniProt position 70, VASECEVKCMP); conditions: redox state not stated in this article
Glu88 = Glu88 (UniProt position 88, GQKVGEFSGAN); conditions: redox state not stated in this article
Glu95 = Glu95 (UniProt position 95, SGANKEKLEAT); conditions: redox state not stated in this article
Glu98 = Glu98 (UniProt position 98, NKEKLEATINE); conditions: redox state not stated in this article
Asp143 = Asp143 (UniProt position 225, NIWSEDNADSG)
Asp146 = Asp146 (UniProt position 228, SEDNADSGQ--)
Asp40 = Asp40 (UniProt position 122, RLLLVDTPETK)
Asp95 = Asp95 (UniProt position 177, AYIYADGKMVN)
Glu10 = Glu10 (UniProt position 92, KKLHKEPATLI)
Glu101 = Glu101 (UniProt position 183, GKMVNEALVRQ)
Glu122 = Glu122 (UniProt position 204, PNNTHEQHLRK)
Glu129 = Glu129 (UniProt position 211, HLRKSEAQAKK)
Glu135 = Glu135 (UniProt position 217, AQAKKEKLNIW)
Glu142 = Glu142 (UniProt position 224, LNIWSEDNADS)
Glu43 = Glu43 (UniProt position 125, LVDTPETKHPK)
Glu52 = Glu52 (UniProt position 134, PKKGVEKYGPE)
Glu57 = Glu57 (UniProt position 139, EKYGPEASAFT)
Glu67 = Glu67 (UniProt position 149, TKKMVENAKKI)
Glu73 = Glu73 (UniProt position 155, NAKKIEVEFDK)
Glu75 = Glu75 (UniProt position 157, KKIEVEFDKGQ)
His121 = His121 (UniProt position 203, KPNNTHEQHLR)
His124 = His124 (UniProt position 206, NTHEQHLRKSE)
His46 = His46 (UniProt position 128, TPETKHPKKGV)
His8 = His8 (UniProt position 90, STKKLHKEPAT)

In the case of “Escherichia coli thioredoxin 1 (EcTrx) (Escherichia coli)”, the pKa (Asp20 [1]) is given as 3.80, the pKa (Asp26 [2]) is given as 7.50 and the pKa (Cys32) is given as 7.10. For the same substance, the pKa (Cys35) was 9.90, the pKa (His6) was 6.20 and the pKa (Nterm1 [3]) was 7.40.
For “Hen egg-white lysozyme (HEWL) (Gallus gallus)”, the pKa (Asp101) is listed as 4.09, the pKa (Asp119) is listed as 3.20 and the pKa (Asp18) is listed as 2.66. The pKa (Asp48) was 1.60, the pKa (Asp52) was 3.68 and the pKa (Asp66) was 0.90. The pKa (Asp87) was 2.07, the pKa (Cterm129) was 2.75 and the pKa (Glu35) was 6.20. For the same substance, the pKa (Glu7) was 2.85, the pKa (His15) was 5.36 and the pKa (Lys1) was 10.90. The pKa (Lys116) was 10.40, the pKa (Lys13) was 10.60 and the pKa (Lys33) was 10.60. For the same substance, the pKa (Lys96) was 10.80, the pKa (Lys97) was 10.30 and the pKa (Nterm1 [4]) was 7.90. The pKa (Tyr20) was 10.30, the pKa (Tyr23) was 9.80 and the pKa (Tyr53) was 12.10.
In the case of Human thioredoxin (hTrx) (Homo sapiens), the pKa (Asp16) is given as 4.00, the pKa (Asp20 [5]) is given as 3.80 and the pKa (Asp26 [6]) is given as 9.90. For the same substance, the pKa (Asp58) was 2.80, the pKa (Asp60) was 4.20 and the pKa (Asp61) was 5.30. The pKa (Asp64) was 3.20, the pKa (Glu103) was 4.40 and the pKa (Glu13) was 4.40. For the same substance, the pKa (Glu47) was 4.10, the pKa (Glu56) was 3.10 and the pKa (Glu6) was 4.80. The pKa (Glu68) was 4.90, the pKa (Glu70) was 4.60 and the pKa (Glu88) was 3.70. For the same substance, the pKa (Glu95) was 4.10 and the pKa (Glu98) was 3.90.
In the case of “Staphylococcal nuclease (SNase) (Staphylococcus aureus)”, the pKa (Asp143) is given as 3.80, the pKa (Asp146) is given as 3.86 and the pKa (Asp40) is given as 3.87. For the same substance, the pKa (Asp95) was 2.16, the pKa (Glu10) was 2.82 and the pKa (Glu101) was 3.81. The pKa (Glu122) was 3.89, the pKa (Glu129) was 3.75 and the pKa (Glu135) was 3.76. For the same substance, the pKa (Glu142) was 4.49, the pKa (Glu43) was 4.32 and the pKa (Glu52) was 3.93. The pKa (Glu57) was 3.49, the pKa (Glu67) was 3.76 and the pKa (Glu73) was 3.31. The pKa (Glu75) was 3.26, the pKa (His121) was 5.30 and the pKa (His124) was 5.73. The pKa (His46) was 5.86 and the pKa (His8) was 6.52.
